{
  "source": "patent US20220089776A1",
  "about": "(OREGON HEALTH AND SCIENCE UNIVERSITY, published 2022)",
  "binders": {"B1": {"name": "humanized 5C12 antibody HC1 + LC1 (PP13893) (antibody, human IgG4 S228P, kappa, V domains shown)", "VH": "QVQLQESGPGLVKPSQTLSLTCTVSGYSITSGYSWHWIRQHPGKGLEWIGYIQYSGNTNSNPSLKSRVTISRDTSKNQFSLKLSSVTAADTAVYYCARWGSFDYWGQGTLVTVSS", "VL": "EIVLTQSPATLSLSPGERATLSCRASSSVNYLHWYQQKPGQAPRRLIYDTSKLATGIPARFSGSGSGTDYTLTISSLEPEDFAVYYCQQWSGNPPTFGGGTKVEIKR", "notes": "Human IgG4 (S241P hinge modified), expressed in HEK293; also called AB054; h5C12"}, "B2": {"name": "humanized 5C12 antibody HC3 + LC2 (PP13900) (antibody, human IgG4 S228P, kappa, V domains shown)", "VH": "B1 VH with Q1D, Q16E, H41P, K82R, L110M", "VL": "B1 VL with R44K, L46W", "notes": "Human IgG4 (S241P hinge modified), expressed in HEK293; also called H7882 + L7881"}, "B3": {"name": "humanized 5C12 antibody HC1 + LC2 (PP13894) (antibody, human IgG4 S228P, kappa, V domains shown)", "VH": "B1 VH", "VL": "B1 VL with R44K, L46W", "notes": "Human IgG4 (S241P hinge modified), expressed in HEK293; also called H7880 + L7881"}, "B4": {"name": "humanized 5C12 antibody HC2 + LC3 (PP13898) (antibody, human IgG4 S228P, kappa, V domains shown)", "VH": "B1 VH with Q1D, S25T, I49M", "VL": "B1 VL with E1D, S7T, R44K, G99Q, K102R, V103L", "notes": "Human IgG4 (S241P hinge modified), expressed in HEK293; also called H7881 + L7882"}, "B5": {"name": "humanized 5C12 antibody HC1 + LC3 (PP13895) (antibody, human IgG4 S228P, kappa, V domains shown)", "VH": "B1 VH", "VL": "B1 VL with E1D, S7T, R44K, G99Q, K102R, V103L", "notes": "Human IgG4 (S241P hinge modified), expressed in HEK293; also called H7880 + L7882"}, "B6": {"name": "humanized 5C12 antibody HC3 + LC3 (PP13901) (antibody, human IgG4 S228P, kappa, V domains shown)", "VH": "B1 VH with Q1D, Q16E, H41P, K82R, L110M", "VL": "B1 VL with E1D, S7T, R44K, G99Q, K102R, V103L", "notes": "Human IgG4 (S241P hinge modified), expressed in HEK293; also called H7882 + L7882"}, "B7": {"name": "humanized 5C12 antibody HC3 + LC1 (PP13899) (antibody, human IgG4 S228P, kappa, V domains shown)", "VH": "B1 VH with Q1D, Q16E, H41P, K82R, L110M", "VL": "B1 VL", "notes": "Human IgG4 (S241P hinge modified), expressed in HEK293; also called H7882 + L7880"}, "B8": {"name": "humanized 5C12 antibody HC2 + LC2 (PP13897) (antibody, human IgG4 S228P, kappa, V domains shown)", "VH": "B1 VH with Q1D, S25T, I49M", "VL": "B1 VL with R44K, L46W", "notes": "Human IgG4 (S241P hinge modified), expressed in HEK293; also called H7881 + L7881"}, "B9": {"name": "humanized 5C12 antibody HC2 + LC1 (PP13896) (antibody, human IgG4 S228P, kappa, V domains shown)", "VH": "B1 VH with Q1D, S25T, I49M", "VL": "B1 VL", "notes": "Human IgG4 (S241P hinge modified), expressed in HEK293; also called H7881 + L7880"}, "B10": {"name": "Chimera (chimeric parental antibody) PP13892 (antibody, human IgG4, V domains shown)", "VH": "DVQLQESGPDLVKPSQSLSLTCTVTGYSITSGYSWHWIRQFPGNNLEWMGYIQYSGNTNSNPSLKSRISITRDTSKNQFFLHLNSVTTEDTATYYCARWGSFDYWGQGTTLTVSS", "VL": "QIVLTQSPAIMSASPGEKVTMTCSASSSVNYMHWYQQKSGTSPKRWIYDTSKLASGVPARFSGSGSGTSYSLTISSMEAGDAATYYCQQWSGNPPTFGGGTILEIK", "notes": "Variable regions of murine AB053 on the same human IgG4 (S241P hinge modified) backbone as the humanized antibodies; also called H7879 + L7879"}},
  "note": "Residue numbers refer to the chain shown, from its start. Names and notes keep the numbering of the source.",
  "data": [
    {"target": "T1, human blood protein factor XII (FXII) (human, UniProt P00748 20-615)", "T1 construct": "mature; Single-chain zymogen as it circulates in plasma; also called human FXII; plasma-derived FXII", "T1 sequence (looked up)": "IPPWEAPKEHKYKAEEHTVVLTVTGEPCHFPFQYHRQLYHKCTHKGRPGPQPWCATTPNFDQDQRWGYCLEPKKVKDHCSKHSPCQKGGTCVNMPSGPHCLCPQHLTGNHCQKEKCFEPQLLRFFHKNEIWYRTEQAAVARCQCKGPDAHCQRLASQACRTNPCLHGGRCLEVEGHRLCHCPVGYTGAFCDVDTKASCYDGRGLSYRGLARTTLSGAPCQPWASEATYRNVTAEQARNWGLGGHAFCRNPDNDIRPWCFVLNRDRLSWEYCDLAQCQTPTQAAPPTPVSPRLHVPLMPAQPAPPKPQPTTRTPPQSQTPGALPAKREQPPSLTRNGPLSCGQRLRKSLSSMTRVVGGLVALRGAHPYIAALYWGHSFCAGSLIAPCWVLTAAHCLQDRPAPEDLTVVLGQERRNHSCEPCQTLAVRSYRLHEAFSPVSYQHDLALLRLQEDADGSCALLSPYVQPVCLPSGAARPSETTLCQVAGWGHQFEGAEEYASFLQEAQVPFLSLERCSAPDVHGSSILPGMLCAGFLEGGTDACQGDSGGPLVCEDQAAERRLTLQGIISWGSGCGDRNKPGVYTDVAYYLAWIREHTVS", "experiment": "BLI (Octet RED96), antibody on anti-human Fc biosensors, antigen in solution, 1:1 fit", "experimental": "Multi-concentration kinetic experiments were performed on the Octet RED96 system (ForteBio). Anti-human Fc biosensors (ForteBio) were hydrated in sample diluent (0.1% BSA in PBS and 0.02% Tween 20) and preconditioned in pH 1.9 Glycine. Antigen was diluted by a 7-point, 3-fold serial dilution starting at 200 nM with sample diluent. Antibodies were diluted to 1μg/ml with sample diluent and then immobilized onto anti-human Fc biosensors. After baselines were established for 30 seconds in sample diluent, the biosensors were moved to wells containing serially diluted antigen to measure the association and dissociation. […] The binding affinities were characterized by fitting the kinetic sensorgrams to a monovalent binding model (1:1 binding).", "units": {"Kd": "nM", "koff": "s⁻¹", "kon": "M⁻¹ s⁻¹"}, "values": [
      {"binder": "B1", "Kd": 0.3, "koff": 0.00016, "kon": 530000},
      {"binder": "B2", "Kd": 0.32, "koff": 0.00019, "kon": 580000},
      {"binder": "B3", "Kd": 0.3, "koff": 0.00016, "kon": 530000},
      {"binder": "B4", "Kd": 0.31, "koff": 0.00016, "kon": 500000},
      {"binder": "B5", "Kd": 0.41, "koff": 0.0002, "kon": 500000},
      {"binder": "B6", "Kd": 0.35, "koff": 0.00018, "kon": 530000},
      {"binder": "B7", "Kd": 0.27, "koff": 0.00015, "kon": 560000},
      {"binder": "B8", "Kd": 0.15, "koff": "9e-05", "kon": 620000},
      {"binder": "B9", "Kd": 0.44, "koff": 0.00022, "kon": 500000},
      {"binder": "B10", "Kd": 0.24, "koff": 0.00011, "kon": 460000}
    ]},
    {"target": "T1, human blood protein factor XII (FXII)", "experiment": "ELISA, human FXII coated at 1 µg/mL, goat anti-human IgG-HRP detection", "experimental": "One μg/mL of human FXII (Enzyme Research Labs, #HFXII 1212) was coated on the ELISA plate at 4° C. overnight. The coated plate was blocked with 2% BSA in phosphate buffered saline (PBS) at room temperature for one hour and then washed three times with PBS. All antibodies to be tested (PP13892-PP13901 or human Fc isotype control) were diluted with sample diluent in an 11 point, 5-fold, serial dilution starting at 10 μg/mL. Each sample was run in duplicate. Each concentration was incubated on the coated plate for one hour at room temperature and then washed three times with PBS. Bound antibody was detected with goat-anti-human IgG-HRP and washed six times with PBS. TMB substrate was added to each well and the reaction was stopped with 1M HCl. Absorbance was read at 450 nm.\nEC₅₀ for the concentration response curve was calculated by plotting the OD measured at 450 nm against the logarithm of antibody concentration and the EC₅₀ was calculated by nonlinear regression analysis.", "units": {"EC50": "ng/mL"}, "values": [
      {"binder": "B1", "EC50": 9.12},
      {"binder": "B2", "EC50": 7.69},
      {"binder": "B3", "EC50": 8.22},
      {"binder": "B4", "EC50": 8.09},
      {"binder": "B5", "EC50": 9.02},
      {"binder": "B6", "EC50": 9.47},
      {"binder": "B7", "EC50": 8.48},
      {"binder": "B8", "EC50": 8.78},
      {"binder": "B9", "EC50": 8.24},
      {"binder": "B10", "EC50": 9.04}
    ]}
  ]
}
